# In patent US20220332804A1 (CSL INNOVATION, published 2022):
# Numbering of substitutions follows the chain as printed.
# T1: human C2 E476A (human, UniProt P06681 21-752)
# T1 sequence: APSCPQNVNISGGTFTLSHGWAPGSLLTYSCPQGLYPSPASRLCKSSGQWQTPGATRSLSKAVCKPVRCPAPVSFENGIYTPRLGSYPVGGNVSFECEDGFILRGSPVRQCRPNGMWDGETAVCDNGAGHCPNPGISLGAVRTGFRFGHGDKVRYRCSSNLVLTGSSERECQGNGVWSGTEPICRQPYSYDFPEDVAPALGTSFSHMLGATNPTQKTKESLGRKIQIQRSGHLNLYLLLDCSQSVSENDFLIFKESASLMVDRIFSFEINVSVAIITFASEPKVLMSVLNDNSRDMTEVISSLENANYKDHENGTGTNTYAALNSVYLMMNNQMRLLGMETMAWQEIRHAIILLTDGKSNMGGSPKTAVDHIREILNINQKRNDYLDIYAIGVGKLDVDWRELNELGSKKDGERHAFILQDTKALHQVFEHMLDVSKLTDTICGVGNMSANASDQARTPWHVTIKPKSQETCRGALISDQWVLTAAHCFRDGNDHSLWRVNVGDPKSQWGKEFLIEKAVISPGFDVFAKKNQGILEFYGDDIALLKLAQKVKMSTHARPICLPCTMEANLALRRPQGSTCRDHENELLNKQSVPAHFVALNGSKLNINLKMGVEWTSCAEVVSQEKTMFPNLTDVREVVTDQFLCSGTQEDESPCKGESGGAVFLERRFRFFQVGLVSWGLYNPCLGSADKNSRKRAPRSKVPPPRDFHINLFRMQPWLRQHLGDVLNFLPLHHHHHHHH
# T2: human C2 D511A (human, UniProt P06681 21-752)
# T2 sequence: T1 sequence with A456E, D491A
# T3: human C2 G530A (human, UniProt P06681 21-752)
# T3 sequence: T1 sequence with A456E, G510A
# T4: human C2 E490A (human, UniProt P06681 21-752)
# T4 sequence: T1 sequence with A456E, E470A
# B1: RF16-226 (antibody, human IgG4 S228P, lambda)
# heavy: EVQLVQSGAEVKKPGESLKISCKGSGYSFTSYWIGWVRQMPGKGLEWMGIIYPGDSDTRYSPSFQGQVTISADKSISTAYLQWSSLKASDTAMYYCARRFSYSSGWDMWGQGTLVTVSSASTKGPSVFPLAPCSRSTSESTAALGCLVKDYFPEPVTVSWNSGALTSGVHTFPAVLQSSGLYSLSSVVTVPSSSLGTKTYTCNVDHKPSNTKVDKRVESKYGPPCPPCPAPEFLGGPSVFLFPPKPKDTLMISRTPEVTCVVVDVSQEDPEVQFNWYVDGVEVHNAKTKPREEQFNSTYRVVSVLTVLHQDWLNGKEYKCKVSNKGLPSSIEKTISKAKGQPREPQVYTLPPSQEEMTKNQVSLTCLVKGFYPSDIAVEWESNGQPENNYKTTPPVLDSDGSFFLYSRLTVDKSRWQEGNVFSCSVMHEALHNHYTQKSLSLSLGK
# light: SYELTQPPSVSVSPGQTARITCSGDALTSKYVAWYQQKSGLAPLLVIYEDTRRPSGIPAKFSGSSSGSVATLTISGAHGDDEADYYCYSTDASGHQRVFGGGTKLTVLSQPKAAPSVTLFPPSSEELQANKATLVCLISDFYPGAVTVAWKADGSPVKAGVETTKPSKQSNNKYAASSYLSLTPEQWKSHRSYSCQVTHEGSTVEKTVAPTECS
# notes: pH-dependent anti-C2 antibody from a phage display library; also called WT
# Columns and labels:
# Experiment in all cases: SPR, KD relative to WT C2;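 note: biacore SPR at 37 °C, anti-C2 mAbs captured via immobilised goat anti-human IgG, C2 alanine or serine surface mutants as analytes, 1:1 model fitted, double-referenced sensograms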
# human C2 E476A = biological target: T1, human C2 E476A
# human C2 D511A = biological target: T2, human C2 D511A
# human C2 G530A = biological target: T3, human C2 G530A
# human C2 E490A = biological target: T4, human C2 E490A
binder,measurement,setting,value
B1,Fold diff,human C2 E476A,2 fold
same,Fold diff,human C2 D511A,3 fold
same,Fold diff,human C2 G530A,2 fold
same,Fold diff,human C2 E490A,2 fold
